Results: patent publication US20240270821A1, “GIP/GLP1/GCG TRI-RECEPTOR AGONISTS AND USES THEREOF” (priority 2023, published 2024)
Starred links: 1 amine or outer side, 2 acyl side, 3 side chain; linkers in the order of their positions; H or OH if unused. Non-standard residues stand in square brackets, D forms with d. Groups on a side chain read outwards from the residue. No end group written: not given here. *: point of attachment. C18 diacid = O=C(O)CCCCCCCCCCCCCCCCC(=O)*; γGlu = O=C(O)[C@H](CCC(=O)[*:2])N[*:1]; αMeL = CC(C)C[C@](C)(N)C(=O)O; Dap = NC[C@H](N)C(=O)O; AEEA = NCCOCCOCC(=O)O; Aib = CC(C)(N)C(=O)O

Key:
Assay in all cases: cell-based or functional assay
[1] = target: hGLP-1R (Homo sapiens, UniProt P43220)
hGLP-1R, sequence (P43220 24-463): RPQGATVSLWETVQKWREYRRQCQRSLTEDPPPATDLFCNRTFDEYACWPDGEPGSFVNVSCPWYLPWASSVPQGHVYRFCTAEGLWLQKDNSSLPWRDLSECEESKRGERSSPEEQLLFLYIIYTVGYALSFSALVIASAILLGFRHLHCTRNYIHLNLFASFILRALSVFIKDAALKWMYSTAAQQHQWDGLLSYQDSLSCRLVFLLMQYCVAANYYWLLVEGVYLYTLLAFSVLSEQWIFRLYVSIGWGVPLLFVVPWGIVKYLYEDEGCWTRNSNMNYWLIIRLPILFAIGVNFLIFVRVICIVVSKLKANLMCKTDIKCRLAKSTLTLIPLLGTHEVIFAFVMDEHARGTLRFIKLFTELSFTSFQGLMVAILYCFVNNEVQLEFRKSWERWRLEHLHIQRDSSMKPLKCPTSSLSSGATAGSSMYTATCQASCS

[2] = target: T1, human GIP receptor (human) (UniProt P48546)
T1 sequence (looked up): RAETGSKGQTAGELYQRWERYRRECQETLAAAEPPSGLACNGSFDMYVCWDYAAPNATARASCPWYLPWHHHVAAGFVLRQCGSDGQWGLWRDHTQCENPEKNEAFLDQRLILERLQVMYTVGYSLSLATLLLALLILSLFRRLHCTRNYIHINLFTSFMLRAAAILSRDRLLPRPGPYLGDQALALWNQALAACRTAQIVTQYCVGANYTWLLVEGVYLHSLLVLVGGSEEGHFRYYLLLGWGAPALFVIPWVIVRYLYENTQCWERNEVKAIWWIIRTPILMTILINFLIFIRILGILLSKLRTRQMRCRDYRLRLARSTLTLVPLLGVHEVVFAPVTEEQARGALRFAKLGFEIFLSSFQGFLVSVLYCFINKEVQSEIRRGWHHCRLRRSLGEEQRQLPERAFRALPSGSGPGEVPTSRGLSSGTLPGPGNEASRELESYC

[3] = target: human GLP-1R (SNAP-GLP-1R expressed in HEK293 cells) (human) (UniProt P43220)
human GLP-1R (SNAP-GLP-1R expressed in HEK293 cells) (human), sequence (P43220 24-463): as the sequence (P43220 24-463) above

[4] = target: human glucagon receptor (human) (UniProt P47871)
human glucagon receptor (human), sequence (P47871 26-477): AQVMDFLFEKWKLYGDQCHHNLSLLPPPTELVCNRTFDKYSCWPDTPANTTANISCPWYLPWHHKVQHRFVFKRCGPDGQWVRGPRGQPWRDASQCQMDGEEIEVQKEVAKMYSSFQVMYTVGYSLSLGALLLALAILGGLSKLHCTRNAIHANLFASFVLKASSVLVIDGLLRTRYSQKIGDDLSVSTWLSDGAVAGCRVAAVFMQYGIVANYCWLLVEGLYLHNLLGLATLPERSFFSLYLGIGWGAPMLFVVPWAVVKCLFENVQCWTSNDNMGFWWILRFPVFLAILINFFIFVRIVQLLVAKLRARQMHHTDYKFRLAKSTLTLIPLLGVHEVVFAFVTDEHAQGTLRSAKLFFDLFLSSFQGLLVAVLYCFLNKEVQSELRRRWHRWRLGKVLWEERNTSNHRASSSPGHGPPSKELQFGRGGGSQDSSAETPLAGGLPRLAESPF

Row | Binder | Relative cAMP EC50 [1] [nM] | cAMP Rel EC50, nM (in the presence of 1% HSA) [1] [nM] | Relative cAMP EC50 [2] [nM] | cAMP Rel EC50, nM (in the presence of 1% HSA) [2] [nM] | GLP1R Internalization EC50 [3] [nM] | Internalization % TOP [3] [%] | Relative cAMP EC50 [4] [nM] | cAMP Rel EC50, nM (in the presence of 1% HSA) [4] [nM] | cAMP Rel EC50, nM (1% HSA) [1] [nM] | cAMP Rel EC50, nM (1% HSA) [2] [nM] | cAMP Rel EC50, nM (1% HSA) [4] [nM] | cAMP Rel EC50 (1% HSA) [1] [nM] | cAMP Rel EC50 (1% HSA) [2] [nM] | cAMP Rel EC50 (1% HSA) [4] [nM]
1 | YXQGTFTSDFSXXLDKKAQXAFIEYLLEAGPSSGEPPPSEG (synthetic construct; SITE 2: note = 2-Aminoisobutyric Acid; SITE 12: note = L-ornithine; SITE 13: note = alpha-methyl-leucine; SITE 17: note = Lysine is chemically modified through conjugation of the epsilon-amino group of the Lysine side chain with (2-[2-(2-Amino-ethoxy)-ethoxy]-acetyl)2-(gamma-Glu)) [Example 116] | 7.83 | 401 | 0.382 | 40.4 | 80.7 | 46.2 | 3.96 | 882 |  |  |  |  |  | 
2 | Y[Aib]QGTFTSDYS[Dap][αMeL]LDKK([AEEA-γGlu-C18 diacid])AQ[Aib]AFIEYLLEGGESSGAPPPSGS-NH2 [Example 360] | 5.86 |  | 0.45 |  | 214 | 66.1 | 5.28 |  | 989 | 78.3 | 1470 |  |  | 
3 | YXQGTXTSDXSIXLDXKAQXXFIEXLIEGGPSSGEPPPETE (synthetic construct; SITE 2: note = 2-Aminoisobutyric Acid; SITE 6: note = alpha-methyl-2-fluoro-L-phenylalanine; SITE 10: note = 3-(4-Pyridyl)-L-alanine; SITE 13: note = alpha-methyl-leucine; SITE 16: note = L-ornithine; SITE 17: note = Lysine is chemically modified through conjugation of the epsil) [Example 686] |  |  |  |  | 33.2 | 101 |  |  |  |  |  | 19.1 | 0.542 | 169
4 | YXQGTFTSDXSQXLDXKAQXQFIEXLIEGGPSSGEPPPSGSEE (non-natural residues, lipidated Lys, C-terminal amide; synthetic construct; SITE 2: note = 2-Aminoisobutyric Acid; SITE 10: note = 3-(4-Pyridyl)-L-alanine; SITE 13: note = alpha-methyl-leucine; SITE 16: note = L-ornithine; SITE 17: note = Lysine is chemically modified through conjugation of the epsilon-amino group of the Lysine side chain with (gamma-Gl)) [Example 1026] | 1.77 |  | 0.308 |  | 47.4 | 80 | 6.32 |  | 299 | 61.3 | 2080 |  |  | 
5 | YXQGTFTSDYSXXLDKKAQXAFIEYLLEGGESSGAPPPSGS (synthetic construct; SITE 2: note = 2-Aminoisobutyric Acid; SITE 12: note = L-ornithine; SITE 13: note = alpha-methyl-leucine; SITE 17: note = Lysine is chemically modified through conjugation of the epsilon-amino group of the Lysine side chain with (2-[2-(2-Amino-ethoxy)-ethoxy]-acetyl)-(gamma-Glu)) [Example 359] | 4.61 |  | 0.281 |  | 49.6 | 74.4 | 2.1 |  | 826 | 103 | 957 |  |  | 
6 | YXQGTFTSDFSXXLDKKAQXAFIEWLLEGGHSSGAPPPSGE (synthetic construct; SITE 2: note = 2-Aminoisobutyric Acid; SITE 12: note = L-ornithine; SITE 13: note = alpha-methyl-leucine; SITE 17: note = Lysine is chemically modified through conjugation of the epsilon-amino group of the Lysine side chain with (2-[2-(2-Amino-ethoxy)-ethoxy]-acetyl)-(gamma-Glu)) [Example 122] | 3.93 | 468 | 0.189 | 32.6 | 57.4 | 43.7 | 3.95 | 548 |  |  |  |  |  | 
7 | YXQGTFTSDFSXXLDKKAQXAFIEYLLEXGPSSGAPPPSGE (synthetic construct; SITE 2: note = 2-Aminoisobutyric Acid; SITE 12: note = L-ornithine; SITE 13: note = alpha-methyl-leucine; SITE 17: note = Lysine is chemically modified through conjugation of the epsilon-amino group of the Lysine side chain with (2-[2-(2-Amino-ethoxy)-ethoxy]-acetyl)-(gamma-Glu)) [Example 110] | 2.99 | 821 | 0.102 | 19.8 | 28.3 | 42.5 | 2.45 | 627 |  |  |  |  |  | 
8 | YXQGTFTSDFSXXLDKKAQXAFIEWLLEGGESSGAPPPEGS (synthetic construct; SITE 2: note = 2-Aminoisobutyric Acid; SITE 12: note = L-ornithine; SITE 13: note = alpha-methyl-leucine; SITE 17: note = Lysine is chemically modified through conjugation of the epsilon-amino group of the Lysine side chain with (2-[2-(2-Amino-ethoxy)-ethoxy]-acetyl)-(gamma-Glu)) [Example 125] | 4.12 | 1050 | 0.503 | 67.8 | 86.4 | 42.6 | 3.97 | 901 |  |  |  |  |  | 
9 | YXQGTFTSDXSXXLDKKAQXAFIEWLLEGGPSSGEPPPSGE (synthetic construct; SITE 2: note = 2-Aminoisobutyric Acid; SITE 10: note = 3-(4-Pyridyl)-L-alanine; SITE 12: note = L-ornithine; SITE 13: note = alpha-methyl-leucine; SITE 17: note = Lysine is chemically modified through conjugation of the epsilon-amino group of the Lysine side chain with (2-[2-(2-) [Example 115] | 7.6 | 1460 | 0.457 | 73.9 | 255 | 56.5 | 10.6 | 2210 |  |  |  |  |  | 
10 | YXQGTFTSDFSXXLDKKAQXAFIEYLLEGGPSSGAPPPGES (synthetic construct; SITE 2: note = 2-Aminoisobutyric Acid; SITE 12: note = L-ornithine; SITE 13: note = alpha-methyl-leucine; SITE 17: note = Lysine is chemically modified through conjugation of the epsilon-amino group of the Lysine side chain with (2-[2-(2-Amino-ethoxy)-ethoxy]-acetyl)2-(gamma-Glu)) [Example 118] | 6.03 | 1450 | 0.43 | 63.4 | 82.3 | 46.4 | 7.02 | 2460 |  |  |  |  |  | 
11 | YXQGTFTSDFSXXLDKKAQXAFIEYLLEXGPSSGAPPPSGE (synthetic construct; SITE 2: note = 2-Aminoisobutyric Acid; SITE 12: note = L-ornithine; SITE 13: note = alpha-methyl-leucine; SITE 17: note = Lysine is chemically modified through conjugation of the epsilon-amino group of the Lysine side chain with (2-[2-(2-Amino-ethoxy)-ethoxy]-acetyl)2-(gamma-Glu)) [Example 111] | 5.06 | 878 | 0.0888 | 10.4 | 49.1 | 46.4 | 4.25 | 1260 |  |  |  |  |  | 
